Where “and” joins values, the source holds several entries; their conditions need not be identical. Equal values may be shown once.

Eleven proteins from publication PMC3024981, “It Takes Two to Tango: Defining an Essential Second Active Site in Pyridoxal 5′-Phosphate Synthase” (PLoS ONE, 2011) can be followed below.

Data set [1] deals with the molecule itself. Kind of data set: SEC-MALS; Superdex 200 10/300 GL, 100 µl at 1 mg/ml; 50 mM potassium phosphate pH 7.5, 50 mM potassium chloride, 0.01% sodium azide; miniDAWN TREOS; dodecamer to hexamers. (Size exclusion chromatography separates by hydrodynamic size, large species first.)
Substrate in data set [2]: NC(=O)CC[C@H](N)C(=O)O
Briefly: coupled glutaminase assay. The class given is biochemical, Bacillus subtilis. Particulars: activated by wild-type Pdx1, 50 mM Tris-Cl pH 7.5, 37°C. From the text:
coupled glutaminase assay on Pdx2 (glutaminase, activated by Pdx1)

Substrate in the data set “purified protein”: O=CC(O)COP(=O)(O)O
Kind of data set: purified protein. The class given is biochemical, Bacillus subtilis. Particulars: R5P and glutamine as co-substrates, 50 mM Tris-Cl pH 7.5, 37°C.

B1: Pdx1 wild type (Bacillus subtilis), native (untagged) (enzyme)
chain: MAQTGTERVKRGMAEMQKGGVIMDVINAEQAKIAEEAGAVAVMALERVPADIRAAGGVARMADPTIVEEVMNAVSIPVMAKARIGHIVEARVLEAMGVDYIDESEVLTPADEEFHLNKNEYTVPFVCGCRDLGEATRRIAEGASMLRTKGEPGTGNIVEAVRHMRKVNAQVRKVVAMSEDELMTEAKNLGAPYELLLQIKKDGKLPVVNFAAGGVATPADAALMMQLGADGVFVGSGIFKSDNPAKFAKAIVEATTHFTDYKLIAELSKELGTAMKGIEISNLLPEQRMQERGW
notes: Pdx1, synthase subunit of PLP synthase, Bacillus subtilis; construct pETBsPdx1 of Raschle et al. (2005); Native means untagged; Dodecamer by SEC-MALS; also called BsPdx1 wild type; PLP synthase synthase subunit; source: construct pETBsPdx1; expressed and purified as described by Raschle et al. (2005); copies: 12
As a reminder, the stoichiometry N is a count of units in the complex or per binding partner. Regarding B1, the “stoichiometry N” value in data set [1] amounted to 12.

B2: Pdx1 K187A (Bacillus subtilis), hexahistidine tagged (enzyme)
chain: MAQTGTERVKRGMAEMQKGGVIMDVINAEQAKIAEEAGAVAVMALERVPADIRAAGGVARMADPTIVEEVMNAVSIPVMAKARIGHIVEARVLEAMGVDYIDESEVLTPADEEFHLNKNEYTVPFVCGCRDLGEATRRIAEGASMLRTKGEPGTGNIVEAVRHMRKVNAQVRKVVAMSEDELMTEAANLGAPYELLLQIKKDGKLPVVNFAAGGVATPADAALMMQLGADGVFVGSGIFKSDNPAKFAKAIVEATTHFTDYKLIAELSKELGTAMKGIEISNLLPEQRMQERGW
notes: Pdx1, synthase subunit of PLP synthase, Bacillus subtilis; parent construct pETBsPdx1-His6 of Strohmeier et al. (2006); It is in a dodecamer:hexamer equilibrium by SEC-MALS; also called Pdx1 K187A mutein; source: site directed mutagenesis of Pdx1; expressed and purified as described by Raschle et al. (2005); not shown: His6, C-terminal, kept
Turning to B2, the “stoichiometry N” value in data set [1] is 12 and 6.

B3: Pdx1 R288A (Bacillus subtilis), native (untagged) (enzyme)
chain: MAQTGTERVKRGMAEMQKGGVIMDVINAEQAKIAEEAGAVAVMALERVPADIRAAGGVARMADPTIVEEVMNAVSIPVMAKARIGHIVEARVLEAMGVDYIDESEVLTPADEEFHLNKNEYTVPFVCGCRDLGEATRRIAEGASMLRTKGEPGTGNIVEAVRHMRKVNAQVRKVVAMSEDELMTEAKNLGAPYELLLQIKKDGKLPVVNFAAGGVATPADAALMMQLGADGVFVGSGIFKSDNPAKFAKAIVEATTHFTDYKLIAELSKELGTAMKGIEISNLLPEQAMQERGW
notes: Pdx1, synthase subunit of PLP synthase, Bacillus subtilis; also called Pdx1 R288A mutein; source: site directed mutagenesis of Pdx1; expressed and purified as described by Raschle et al. (2005); copies: 12
As to B3, the “stoichiometry N” value in data set [1] is 12.

B4: Pdx2 (glutaminase, activated by Pdx1) (Bacillus subtilis subsp. subtilis str. 168) (protein)
chain: MLTIGVLGLQGAVREHIHAIEACGAAGLVVKRPEQLNEVDGLILPGGESTTMRRLIDTYQFMEPLREFAAQGKPMFGTCAGLIILAKEIAGSDNPHLGLLNVVVERNSFGRQVDSFEADLTIKGLDEPFTGVFIRAPHILEAGENVEVLSEHNGRIVAAKQGQFLGCSFHPELTEDHRVTQLFVEMVEEYKQKALV
notes: Pdx2 with untagged wild-type Pdx1; with Pyridoxal 5'-phosphate synthase subunit PdxS
In general, Km refers to the substrate concentration at which the rate is half of its maximum. The term kcat denotes the maximal rate divided by the concentration of active sites. One may read the kcat/Km as the second-order rate constant that governs catalysis at low substrate concentration. Turning to B4, in data set [2], the Michaelis-Menten constant (Km) is 1160 ± 180 µM, the kcat was 0.0295 ± 0.00133 s⁻¹ and the specificity constant (kcat/Km) worked out at 25.5 M⁻¹ s⁻¹.

B5: PLP synthase (Pdx1 + Pdx2), native Pdx1 (Bacillus subtilis subsp. subtilis str. 168) (protein)
chain: AQTGTERVKRGMAEMQKGGVIMDVINAEQAKIAEEAGAVAVMALERVPADIRAAGGVARMADPTIVEEVMNAVSIPVMAKARIGHIVEARVLEAMGVDYIDESEVLTPADEEFHLNKNEYTVPFVCGCRDLGEATRRIAEGASMLRTKGEPGTGNIVEAVRHMRKVNAQVRKVVAMSEDELMTEAKNLGAPYELLLQIKKDGKLPVVNFAAGGVATPADAALMMQLGADGVFVGSGIFKSDNPAKFAKAIVEATTHFTDYKLIAELSKELGTAMKGIEISNLLPEQRMQERGW
notes: complex of untagged Pdx1 with Pdx2; 24-subunit complex; with Pyridoxal 5'-phosphate synthase subunit PdxT
For B5, in the data set “purified protein”, the Km stood at 186 ± 17 µM, the kcat was 0.00055 ± 3.3e-05 s⁻¹ and the kcat/Km is 2.95 M⁻¹ s⁻¹.

B6: PLP synthase (Pdx1-His6 + Pdx2) (Bacillus subtilis subsp. subtilis str. 168) (protein)
chain: AQTGTERVKRGMAEMQKGGVIMDVINAEQAKIAEEAGAVAVMALERVPADIRAAGGVARMADPTIVEEVMNAVSIPVMAKARIGHIVEARVLEAMGVDYIDESEVLTPADEEFHLNKNEYTVPFVCGCRDLGEATRRIAEGASMLRTKGEPGTGNIVEAVRHMRKVNAQVRKVVAMSEDELMTEAKNLGAPYELLLQIKKDGKLPVVNFAAGGVATPADAALMMQLGADGVFVGSGIFKSDNPAKFAKAIVEATTHFTDYKLIAELSKELGTAMKGIEISNLLPEQRMQERGW
notes: complex of C-terminally hexahistidine-tagged Pdx1 with Pdx2-His6; with Pyridoxal 5'-phosphate synthase subunit PdxT
In the case of B6, in the data set “purified protein” (His-tagged proteins), the Km amounted to 155 ± 23 µM, the catalytic constant (kcat) turned out to be 0.0006 ± 8.3e-05 s⁻¹ and the kcat/Km is 3.87 M⁻¹ s⁻¹.

B7: PLP synthase (Pdx1-His6 + Pdx2) (Bacillus subtilis subsp. subtilis str. 168; R138A) (protein)
chain: AQTGTERVKRGMAEMQKGGVIMDVINAEQAKIAEEAGAVAVMALERVPADIRAAGGVARMADPTIVEEVMNAVSIPVMAKARIGHIVEARVLEAMGVDYIDESEVLTPADEEFHLNKNEYTVPFVCGCRDLGEATRAIAEGASMLRTKGEPGTGNIVEAVRHMRKVNAQVRKVVAMSEDELMTEAKNLGAPYELLLQIKKDGKLPVVNFAAGGVATPADAALMMQLGADGVFVGSGIFKSDNPAKFAKAIVEATTHFTDYKLIAELSKELGTAMKGIEISNLLPEQRMQERGW
notes: as for B6
In the case of B7, in “purified protein” (His-tagged proteins), the Michaelis-Menten constant (Km) turned out to be 262 ± 26 µM, the turnover number (kcat) stood at 0.0002 ± 1.7e-05 s⁻¹ and the catalytic efficiency (kcat/Km) turned out to be 0.767 M⁻¹ s⁻¹.

B8: PLP synthase (Pdx1-His6 + Pdx2) (Bacillus subtilis subsp. subtilis str. 168; E105D) (protein)
chain: AQTGTERVKRGMAEMQKGGVIMDVINAEQAKIAEEAGAVAVMALERVPADIRAAGGVARMADPTIVEEVMNAVSIPVMAKARIGHIVEARVLEAMGVDYIDESDVLTPADEEFHLNKNEYTVPFVCGCRDLGEATRRIAEGASMLRTKGEPGTGNIVEAVRHMRKVNAQVRKVVAMSEDELMTEAKNLGAPYELLLQIKKDGKLPVVNFAAGGVATPADAALMMQLGADGVFVGSGIFKSDNPAKFAKAIVEATTHFTDYKLIAELSKELGTAMKGIEISNLLPEQRMQERGW
notes: as for B6
On to B8, for which, in the data set “purified protein” (His-tagged proteins), the Km was 249 ± 26 µM, the kcat came out at 0.000233 ± 1.7e-05 s⁻¹ and the kcat/Km came out at 0.933 M⁻¹ s⁻¹.

B9: PLP synthase (Pdx1-His6 + Pdx2) (Bacillus subtilis subsp. subtilis str. 168; H115A/R138A) (protein)
chain: AQTGTERVKRGMAEMQKGGVIMDVINAEQAKIAEEAGAVAVMALERVPADIRAAGGVARMADPTIVEEVMNAVSIPVMAKARIGHIVEARVLEAMGVDYIDESEVLTPADEEFALNKNEYTVPFVCGCRDLGEATRAIAEGASMLRTKGEPGTGNIVEAVRHMRKVNAQVRKVVAMSEDELMTEAKNLGAPYELLLQIKKDGKLPVVNFAAGGVATPADAALMMQLGADGVFVGSGIFKSDNPAKFAKAIVEATTHFTDYKLIAELSKELGTAMKGIEISNLLPEQRMQERGW
notes: as for B6
As for B9, in “purified protein” (His-tagged proteins), the Km is 307 ± 75 µM, the kcat stood at 0.0001 ± 0 s⁻¹ and the kcat/Km is 0.333 M⁻¹ s⁻¹.

B10: PLP synthase (Pdx1-His6 + Pdx2) (Bacillus subtilis subsp. subtilis str. 168; H115A) (protein)
chain: AQTGTERVKRGMAEMQKGGVIMDVINAEQAKIAEEAGAVAVMALERVPADIRAAGGVARMADPTIVEEVMNAVSIPVMAKARIGHIVEARVLEAMGVDYIDESEVLTPADEEFALNKNEYTVPFVCGCRDLGEATRRIAEGASMLRTKGEPGTGNIVEAVRHMRKVNAQVRKVVAMSEDELMTEAKNLGAPYELLLQIKKDGKLPVVNFAAGGVATPADAALMMQLGADGVFVGSGIFKSDNPAKFAKAIVEATTHFTDYKLIAELSKELGTAMKGIEISNLLPEQRMQERGW
notes: as for B6
Regarding B10, in the data set “purified protein” (His-tagged proteins), the Michaelis constant (Km) was determined as 229 ± 55 µM, the turnover number (kcat) is 0.00013 ± 0 s⁻¹ and the kcat/Km came to 0.583 M⁻¹ s⁻¹.

B11: PLP synthase (Pdx1-His6 + Pdx2) (Bacillus subtilis subsp. subtilis str. 168; K187A) (protein)
chain: AQTGTERVKRGMAEMQKGGVIMDVINAEQAKIAEEAGAVAVMALERVPADIRAAGGVARMADPTIVEEVMNAVSIPVMAKARIGHIVEARVLEAMGVDYIDESEVLTPADEEFHLNKNEYTVPFVCGCRDLGEATRRIAEGASMLRTKGEPGTGNIVEAVRHMRKVNAQVRKVVAMSEDELMTEAANLGAPYELLLQIKKDGKLPVVNFAAGGVATPADAALMMQLGADGVFVGSGIFKSDNPAKFAKAIVEATTHFTDYKLIAELSKELGTAMKGIEISNLLPEQRMQERGW
notes: as for B6
For the protein B11, in the data set “purified protein” (His-tagged proteins), the Km was 267 ± 18 µM, the catalytic constant (kcat) came to 0.0005 ± 1.7e-05 s⁻¹ and the kcat/Km was 1.87 M⁻¹ s⁻¹.
